Assay results reported in patent publication US7427671 (US Dept. of Health and Human Services, dated 2008).

Target: T1, human type α platelet derived growth factor receptor (T11 gene product) (human, UniProt P16234 24-1089)
T1 construct: In western blots and immunoprecipitations it came from cell lysates; also called type α PDGF-R; α PDGFR
Experiment: Scatchard analysis of PDGF-BB binding to 32D-αR transfectants

T1 sequence (P16234 24-1089): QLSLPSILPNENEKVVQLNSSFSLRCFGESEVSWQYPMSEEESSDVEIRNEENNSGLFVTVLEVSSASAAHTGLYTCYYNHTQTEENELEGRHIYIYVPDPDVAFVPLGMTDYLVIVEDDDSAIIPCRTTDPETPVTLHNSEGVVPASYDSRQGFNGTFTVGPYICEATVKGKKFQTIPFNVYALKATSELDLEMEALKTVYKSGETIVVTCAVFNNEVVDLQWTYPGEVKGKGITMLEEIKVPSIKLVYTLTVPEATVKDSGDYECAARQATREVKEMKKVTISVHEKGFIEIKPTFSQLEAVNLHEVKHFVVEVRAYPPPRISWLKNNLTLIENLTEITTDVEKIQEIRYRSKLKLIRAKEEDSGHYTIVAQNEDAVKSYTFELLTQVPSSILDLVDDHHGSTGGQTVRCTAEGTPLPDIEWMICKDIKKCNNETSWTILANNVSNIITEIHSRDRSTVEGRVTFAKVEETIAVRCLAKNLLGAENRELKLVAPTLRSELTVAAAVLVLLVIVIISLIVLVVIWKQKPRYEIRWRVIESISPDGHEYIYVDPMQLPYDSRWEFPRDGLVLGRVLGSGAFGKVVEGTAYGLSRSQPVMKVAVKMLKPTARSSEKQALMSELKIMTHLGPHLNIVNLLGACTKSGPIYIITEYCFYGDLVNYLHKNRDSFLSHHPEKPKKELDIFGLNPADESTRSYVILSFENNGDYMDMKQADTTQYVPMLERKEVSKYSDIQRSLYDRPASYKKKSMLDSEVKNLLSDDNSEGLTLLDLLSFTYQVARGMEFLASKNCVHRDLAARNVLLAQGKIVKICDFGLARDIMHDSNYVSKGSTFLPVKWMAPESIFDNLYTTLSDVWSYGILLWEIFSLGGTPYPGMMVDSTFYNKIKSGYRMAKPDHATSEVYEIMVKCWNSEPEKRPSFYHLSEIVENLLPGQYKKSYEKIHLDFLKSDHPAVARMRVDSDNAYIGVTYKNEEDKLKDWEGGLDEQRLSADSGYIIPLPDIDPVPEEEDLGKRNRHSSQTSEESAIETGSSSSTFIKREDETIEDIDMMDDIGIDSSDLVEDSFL

B1: recombinant PDGF-BB (ligand, UniProt P01127 82-190, looked up)
chain: SLGSLTIAEPAMIAECKTRTEVFEISRRLIDRTNANFLVWPPCVEVQRCSGCCNNRNVQCRPTQVQLRPVQVRKIEIVRKKPIFKKATVTLEDHLACKCETVAAARPVT
notes: Homodimer of B chains; also called BB homodimer
Work on B1 yielded a Kd of 0.4 nM.
